This note sets out measurements from patent US20090155164A1 (Amgen, published 2009).

Assay [1] has as its target T1, monomeric human c-fms (residues 1-512)-pHis (human, UniProt P07333 20-512).
T1 construct: Construct stated as residues 1-512; signal stated as amino acids 1-19 and left out; also called human c-fms (1-512).pHIS; monomeric c-fms
Briefly: Biacore, monomeric c-fms. The procedure:
(§1) The binding affinities of the somatic mutation corrected antibodies to monomeric c-fms protein were measured by surface plasmon resonance using a Biacore 3000 instrument.
(§2) The affinity of human c-fms (1-512). pHIS (Amgen) for the anti-c-fms mAbs was measured by Biacore. Experiments were conducted at 25° C. using a Biacore 3000 instrument (Biacore AB) equipped with a CM4 sensor chip. Sensor chips, amine coupling reagents (EDC (1-ethyl-3(3-dimethylaminopropyl)-carbodiimide hydrochloride), NHS (N-hydroxysuccinimide), and ethanolamine-HCl, pH 8.5), 10 mM sodium acetate, pH 5.5, HBS-EP (0.01 M HEPES pH 7.4, 0.15 M NaCl, 3 mM EDTA, 0.005% v/v Surfactant P20), and 10 mM glycine-HCl, pH 1.5 were purchased from Biacore AB. Bovine serum albumin (BSA, Bovuminar Standard Powder) was purchased from Serological Corporation. AffiniPure Goat Anti-Human IgG, Fcγ Fragment Specific was purchased from Jackson ImmunoResearch Laboratories.
(§3) Other anti-c-fms antibodies were tested in a similar manner, but changes were made to the protocol to account for differences in binding characteristics.
For orientation: SPR reads the build-up and loss of mass on a sensor chip optically.

The target in assay [2] is T2, human c-fms, full length, on cells (human, UniProt P07333 20-972). Briefly: cell-based or functional assay.
In assay [3] the target is T1, monomeric human c-fms (residues …). The experiment in a line: Biacore (summary table). The procedure:
(§4) Anti-c-fms 1.2 or 1.2 SM at 0.25 μg/ml was injected over goat anti-human IgG, Fcγ in one flow cell for 2 minutes at 10 μl/min to obtain a surface density of ˜47 RUs. Another flow cell with goat anti-human IgG, Fcγ alone was used as a reference surface. Each assay started with ten cycles of buffer as the analyte to stabilize the signal. […] Each complex was allowed to associate for 2 minutes, and dissociate for 5 minutes. The surfaces were regenerated after each c-fms or buffer injection with a 30-second pulse of 10 mM glycine HCl, pH 1.5 at 100 μl/min, followed by a 30-second injection of buffer.
as §3
(§5) Data was double referenced by subtracting the reference surface responses to remove bulk refractive index changes, and then subtracting the averaged buffer blank response to remove systematic artifacts from the experimental flow cells.

Assay [4] concerns the target T2, human c-fms, full length, on cells. The experiment in a line: inhibition of 125I-hCSF-1 binding to AML-5 cells, 4 C; competitor: 125I-hCSF-1. As to the method: (§6) A saturation radioligand binding experiment was performed in conjunction with each inhibition assay in order to determine both a KD and […] for hCSF-1 binding to c-fms expressed on the surface of AML-5 cells. Mixtures were set up in 96-well round-bottom microtiter plates with total volumes of 150 μl/well. All reagents were diluted in binding media containing 0.2% sodium azide and experiments were conducted at 4° C. to minimize potential receptor internalization and shedding.
(§7) For the saturation binding assay, ¹²⁵I-hCSF-1 was serially diluted 2-fold, starting at a concentration of ˜1.7 nM and going out 12 wells to a concentration of ˜1.5 pM. Nonspecific binding was measured at a single concentration of ¹²⁵I-hCSF-1 (˜80 pM, in triplicate) in the presence of a 1,000-fold molar excess of unlabeled hCSF-1, and assumed to be a linear function of the concentration of radiolabeled hCSF-1 present.

The target in assay [5] is T1, monomeric human c-fms (residues …). Briefly: Biacore 3000, 25 C; mAb captured on goat anti-human IgG Fc, monomeric c-fms(1-512)-pHis analyte, 1:1 fit. The procedure: as §4, §3, §5
Assay [6] has the same target. The experiment in a line: SPR, Biacore 3000, monomeric c-fms; reference: parent 2.360. As to the method:
as §1, §2, §3

Assay [7] has as its target T2, human c-fms, full length, on cells. Briefly: inhibition of 125I-CSF-1 binding to AML-5 cells; competitor: 125I-CSF-1 (summary table). As to the method:
as §6
(§8) Both assays were incubated at 4° C. on a miniorbital shaker for 4 hours, the length of time needed to reach equilibrium as determined in time course experiments. Two 60 μl aliquots of each incubation mixture were transferred to chilled 400 μl polyethylene centrifuge tubes containing 200 μl phthalate oil and spun for 1.5 minutes in a 4° C. tabletop microfuge (Sorvall,) at 9615×g to separate cell associated ¹²⁵I-hCSF-1 from free ¹²⁵I-hCSF-1. The oil tubes were cut, and each cell pellet and supernatant collected in individual 12×75 mm glass tubes and loaded on a COBRA gamma counter (Packard Instrument Company) for cpm measurements. Cpm from duplicate aliquots taken from each well were averaged for analysis.
(§9) Mean K₁ values from 2 experiments were reported (see, TABLE 13).

Assay [8] has the same target. Briefly: inhibition of 125I-hCSF-1 binding to AML-5 cells, 4 C; unlabeled hCSF-1, competitive inhibition of 125I-hCSF-1, 4 C. As to the method:
as §6, §8, §9

The target is the same in assay [9]. The experiment in a line: saturation radioligand binding on AML-5 cells, 4 C; 125I-labelled hCSF-1, saturation binding, 4 C. The procedure:
as §7, §8, §9

Assay [10] has as its target T3, cynomolgus monkey c-fms on primary bone marrow cells (cynomolgus monkey). Briefly: cell-based or functional assay.
Assay [11] addresses T3, cynomolgus monkey c-fms on primary bone …. Briefly: cell-based or functional assay. This is another data set of the same source.
The target in assay [12] is T1, monomeric human c-fms (residues …). Briefly: SPR, Biacore 3000, monomeric c-fms; reference: parent 1.109. The procedure: as §1, §2, §3
In assay [13] the target is T2, human c-fms, full length, on cells. The experiment in a line: cell-based or functional assay. The source holds these as a separate data set.
Assay [14] shares this target. Briefly: cell-based or functional assay. The source holds these as a separate data set.
Assay [15] shares this target. The experiment in a line: cell-based or functional assay. The source holds these as a separate data set.
For assay [16], the target named is T3, cynomolgus monkey c-fms on primary bone …. Briefly: cell-based or functional assay. The source holds these as a separate data set.

T1 sequence (P07333 20-512): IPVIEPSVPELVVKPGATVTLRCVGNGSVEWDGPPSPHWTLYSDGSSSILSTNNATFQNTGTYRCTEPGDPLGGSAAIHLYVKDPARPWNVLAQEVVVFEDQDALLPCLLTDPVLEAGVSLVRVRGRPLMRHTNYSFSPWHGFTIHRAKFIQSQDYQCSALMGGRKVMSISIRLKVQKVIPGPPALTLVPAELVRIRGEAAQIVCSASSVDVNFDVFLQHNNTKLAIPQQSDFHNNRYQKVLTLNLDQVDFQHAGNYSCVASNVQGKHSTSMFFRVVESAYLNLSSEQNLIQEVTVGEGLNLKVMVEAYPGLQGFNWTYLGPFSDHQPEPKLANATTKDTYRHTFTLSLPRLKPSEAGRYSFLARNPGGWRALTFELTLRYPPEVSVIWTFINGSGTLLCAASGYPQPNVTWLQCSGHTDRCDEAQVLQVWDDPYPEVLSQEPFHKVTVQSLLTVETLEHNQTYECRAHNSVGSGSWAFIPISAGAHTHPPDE
T2 sequence (P07333 20-972): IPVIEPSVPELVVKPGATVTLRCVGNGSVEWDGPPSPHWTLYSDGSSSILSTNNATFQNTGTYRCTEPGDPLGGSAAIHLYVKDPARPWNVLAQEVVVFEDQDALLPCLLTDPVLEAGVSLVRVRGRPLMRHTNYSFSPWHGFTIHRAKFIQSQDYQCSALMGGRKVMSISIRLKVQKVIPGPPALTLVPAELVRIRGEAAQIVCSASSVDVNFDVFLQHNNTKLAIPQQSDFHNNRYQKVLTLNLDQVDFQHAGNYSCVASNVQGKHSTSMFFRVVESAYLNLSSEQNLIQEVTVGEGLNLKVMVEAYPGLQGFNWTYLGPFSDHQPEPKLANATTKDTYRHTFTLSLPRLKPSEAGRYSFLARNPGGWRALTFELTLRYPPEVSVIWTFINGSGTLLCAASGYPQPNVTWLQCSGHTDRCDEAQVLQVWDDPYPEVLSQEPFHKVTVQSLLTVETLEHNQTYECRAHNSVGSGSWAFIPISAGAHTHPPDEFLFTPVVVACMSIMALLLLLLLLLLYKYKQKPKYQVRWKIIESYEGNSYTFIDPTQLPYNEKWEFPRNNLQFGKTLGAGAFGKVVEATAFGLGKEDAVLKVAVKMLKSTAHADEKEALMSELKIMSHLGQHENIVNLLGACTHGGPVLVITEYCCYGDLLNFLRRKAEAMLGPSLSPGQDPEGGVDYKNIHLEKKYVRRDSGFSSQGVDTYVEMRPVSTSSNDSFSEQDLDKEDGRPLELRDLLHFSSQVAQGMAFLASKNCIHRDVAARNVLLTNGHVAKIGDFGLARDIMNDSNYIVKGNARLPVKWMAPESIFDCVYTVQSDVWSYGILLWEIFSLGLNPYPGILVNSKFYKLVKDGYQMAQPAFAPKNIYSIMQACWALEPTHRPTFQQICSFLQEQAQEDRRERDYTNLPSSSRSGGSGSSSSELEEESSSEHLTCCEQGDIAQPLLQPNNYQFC

B1: anti-c-fms IgG2 clone 2.360 SM (somatic mutation cured) (antibody, V domains shown)
VH: QVQLVQSGAEVKKPGASVKVSCKVSGYTLTELSMHWVRQAPGKGLEWMGGFDPEDGETIYAQKFQGRVTMTEDTSTDTAYMELSSLRSEDTAVYYCATGVMITFGGVIVGHSYYGMDVWGQGTTVTVSS
VL: DIQMTQSPSSLSASVGDRVTITCRASQGINNYLAWYQQKPGKVPKLLIYVASTLQSGVPSRFSGSGSGTDFTLTISSLQPEDVATYYCQKYNSGPFTFGPGTKVDIKR
notes: Recombinant IgG2 kappa; heavy chain Val-79 to Ala, light chain Gln-45 to Lys
Consider B1, for which the dissociation constant (Kd) in assay [1], in [3] and in assay [5] was 1.2 nM throughout. For the same molecule, the “AML-5 proliferation assay, loss in potency relative to the parent IgG2 antibody” value in assay [2] stood at 10 fold. In addition, the Ki in assay [4] and in assay [7] was ~0.9 nM throughout. Moreover, the koff (in general, the first-order rate constant of dissociation) in assay [5] was 0.000955 s⁻¹. Moreover, the kon (in general, a measure of how fast the partners come together) in assay [5] amounted to 794000 M⁻¹ s⁻¹. In addition, the “fold loss of affinity against the parent antibody” value in assay [6] was found to be 2 fold.

B2: recombinant human CSF-1 (ligand, UniProt P09603 33-190, looked up)
chain: EEVSEYCSHMIGSGHLQSLQRLIDSQMETSCQITFEFVDQEQLKDPVCYLKKAFLLVQDIMEDTMRFRDNTPNAIAIVQLQELSLRLKSCFTKDYEEHDKACVRTFYETPLQLLEKVKNVFNETKNLLDKDWNIFSKNCNNSFAECSSQDVVTKPDCN
notes: also called hCSF-1
As to B2, the Ki (as a rule, a measure of affinity in units of concentration, obtained from inhibition or displacement) in assay [8] amounted to 0.0178 nM. Further, the affinity in assay [9], expressed as Kd, was 0.046 nM.

B3: anti-c-fms IgG2 clone 1.109 SM (somatic mutation cured) (antibody, V domains shown)
VH: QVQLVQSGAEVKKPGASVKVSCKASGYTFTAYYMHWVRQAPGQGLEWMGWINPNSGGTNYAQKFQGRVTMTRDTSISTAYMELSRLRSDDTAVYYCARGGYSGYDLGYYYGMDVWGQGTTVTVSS
VL: DIQMTQSPSSLSASVGDRVTITCQASQDISNFLDWYQQKPGKAPKLLIYDASDLDPGVPSRFSGSGSGTDFTFTISSLQPEDIATYYCQQYVSLPLTFGGGTKVEIKR
notes: Recombinant IgG2 kappa; light chain Asn-28 to Asp and Asn-45 to Lys
Regarding B3, the Kd in assay [1], in [3] and in assay [5] was 0.102 nM each time. Moreover, in assay [10], the “Cynomolgus Bone Marrow Proliferation IC50” value amounted to 0.023 nM. Besides, in [11], the “Cynomolgus bone marrow bioassay IC50” value was 0.023 nM. Also, in assay [2], the “antibody concentration that prevented CSF-1-induced pTyr/c-fms, 293T/c-fms cells” value was ≥ 0.1 µg/ml. Besides, in [12], the “fold loss of affinity against the parent antibody” value was 2 fold. The inhibitory constant (Ki) in assay [4] and in assay [7] was 0.0097 nM each time. The koff in assay [5] was 0.000271 s⁻¹. Further, in assay [5], the kon came out at 2.66e+06 M⁻¹ s⁻¹.

B4: anti-c-fms IgG2 clone 1.2 SM (somatic mutation cured) (antibody, V domains shown)
VH: QVQLVQSGAEVKKPGASVKVSCKASGYTFTSYGISWVRQAPGQGLEWMGWISAYNGNTNYAQKLQGRVTMTTDTSTSTAYMELRSLRSDDTAVYYCARESWFGEVFFDYWGQGTLVTVSS
VL: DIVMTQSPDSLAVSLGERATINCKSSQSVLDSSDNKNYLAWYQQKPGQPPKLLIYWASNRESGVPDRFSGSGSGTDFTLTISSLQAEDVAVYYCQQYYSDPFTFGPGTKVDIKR
notes: Recombinant IgG2 kappa; light chain Ser-78 reverted to germline Thr; also called 1.2.1 SM; antibody 1.2 SM
On to B4, for which, in [1], binding was characterised by a dissociation constant (Kd) of 0.548 nM. Moreover, the “AML-5 proliferation IC50” value in [13] is 0.012 nM. The “Cynomolgus Bone Marrow Proliferation IC50” value in assay [10] turned out to be 0.081 nM. For the same molecule, in [14], the “AML-5 bioassay IC50” value amounted to 0.012 nM. Moreover, the “Cynomolgus bone marrow bioassay IC50” value in assay [11] is 0.081 nM. Also, in [15], the “IC50 of 1.2 SM in the presence of hCSF-1, human bone marrow monocytic cell proliferation, Average” value came to 0.0155 nM; the “IC50 of 1.2 SM in the presence of hCSF-1, human bone marrow monocytic cell proliferation, Expt. 1” value turned out to be 0.0155 nM; the “IC50 of 1.2 SM in the presence of hCSF-1, human bone marrow monocytic cell proliferation, Expt. 2” value is 0.0201 nM; the “IC50 of 1.2 SM in the presence of hCSF-1, human bone marrow monocytic cell proliferation, Expt. 3” value was 0.0109 nM. In assay [16], the “IC50 of 1.2 SM in the presence of hCSF-1, cynomolgus bone marrow monocytic cell proliferation, Average” value stood at 0.0327 nM; the “IC50 of 1.2 SM in the presence of hCSF-1, cynomolgus bone marrow monocytic cell proliferation, Expt. 1” value was determined as 0.0425 nM; the “IC50 of 1.2 SM in the presence of hCSF-1, cynomolgus bone marrow monocytic cell proliferation, Expt. 2” value is 0.026 nM; the “IC50 of 1.2 SM in the presence of hCSF-1, cynomolgus bone marrow monocytic cell proliferation, Expt. 3” value turned out to be 0.0229 nM. Moreover, in assay [2], the “antibody concentration that prevented CSF-1-induced pTyr/c-fms, 293T/c-fms cells” value is ≥ 0.1 µg/ml. The affinity in assay [3], expressed as Kd, was 0.548 nM. The molecule also came in with a Ki in [4] of 0.0115 nM. In [5], the Kd (commonly the concentration at which binding is half-saturated) came to 0.548 nM, the koff was determined as 0.00199 s⁻¹ and the on-rate (kon) stood at 3.62e+06 M⁻¹ s⁻¹. In [7], this molecule came in with a Ki of 0.0115 nM.
